Laboratory results as given in US20240216484A1 (URSAPHARM ARZNEIMITTEL, published 2024).

B1: HZI 2-05 (Anlec in TBS; lectin batch isolated from bromelain) (other)
chain: MSGLVKLGLWGGNEGTLQDIDGHPTRLTKIVIRSAHAIDALQFDYVEDGKTFAAGQWGGNGGKSDTIEFQPGEYLIAIKGTTGALGAVTNLVRSLTFISNMRTYGPFGLEHGTPFSVPVASGRIVAFYGRFGSLVDAFGIYLMPY
B2: Acm-JRL 2 (Anlec in TBS, Batch 2) (other)
chain: B1 chain
B3: HZI 2-10 (Anlec in TBS; lectin batch isolated from bromelain, protease inhibited with MMTS) (other)
chain: B1 chain
B4: HZI 2-06 (Anlec in dist. water; lectin batch isolated from bromelain) (other)
chain: B1 chain

These binders were tested against SARS-CoV-2 spike protein, extracellular domain (1-1213), recombinant from HEK293 cells (SARS-CoV-2, UniProt P0DTC2 14-1213).
Binder B1 has a koff of 0.005 s⁻¹ and a kon of 133 M⁻¹ s⁻¹.
B2 was tested, and the koff was 0.003 s⁻¹.
In the case of B3, the koff is reported as 0.003 s⁻¹ and the kon is reported as 286 M⁻¹ s⁻¹.
Work on B4 yielded a koff of 0.008 s⁻¹ and a kon of 359 M⁻¹ s⁻¹.
